The values below are quoted from earlier work in PMC4351059.

The target in this data set is Cys215 (UniProt position 215, PVVVHCSAGIG). The note with it: not stated (reduced free enzyme implied).

Consider “Protein-tyrosine phosphatase 1B (PTP1B) (Homo sapiens (as described in this article; the cited source title says 'mammalian protein-tyrosine-phosphatase PTP1'))”, for which the pKa is reported as 5.6.
